Measurements: article PMC9543038 (Chembiochem, 2022)
Where no end group is shown, it is not given here. [ ]: non-standard residue; d: D form. pT = C[C@@H](OP(=O)(O)O)[C@H](N)C(=O)O; FAM = fluorescein

Experiments:
cross-linking = molecular target: the molecule itself; test: cross-linking
FAM‐ERα‐pTV peptide [1] = molecular target: T1, FAM‐ERα‐pTV peptide; test: fluorescence polarisation
T1 peptide: {FAM}-KYYITGEAEGFPA[pT]V

FAM‐ERα‐pTV peptide [2] = molecular target: T1, FAM‐ERα‐pTV peptide; test: fluorescence polarisation
FAM‐ERα‐pTV peptide [3] = molecular target: T1, FAM‐ERα‐pTV peptide; test: fluorescence polarisation

Binder	stoichiometry N (cross-linking)	pEC50 with FC-A (100 μM) (FAM‐ERα‐pTV peptide [1])	pEC50 (FAM‐ERα‐pTV peptide [2])	pEC50 with fragment 2 (1 mM) (FAM‐ERα‐pTV peptide [3])
His‐14‐3‐3γ (natural protein, UniProt P61981 1-247, looked up) MVDREQLVQKARLAEQAERYDDMAAAMKNVTELNEPLSNEERNLLSVAYKNVVGARRSSWRVISSIEQKTSADGNEKKIEMVRAYREKIEKELEAVCQDVLSLLDNYLIKNCSETQYESKVFYLKMKGDYYRYLAEVATGEKRATVVESSEKAYSEAHEISKEHMQPTHPIRLGLALNYSVFYYEIQNAPEQACHLAKTAFDDAIAELDTLNEDSYKDSTLIMQLLRDNLTLWTSDQQDDDGGEGNN	2			
recombinant N‐terminally GST‐tagged 14‐3‐3η (natural protein) MGDREQLLQRARLAEQAERYDDMASAMKAVTELNEPLSNEDRNLLSVAYKNVVGARRSSWRVISSIEQKTMADGNEKKLEKVKAYREKIEKELETVCNDVLSLLDKFLIKNCNDFQYESKVFYLKMKGDYYRYLAEVASGEKKNSVVEASEAAYKEAFEISKEQMQPTHPIRLGLALNFSVFYYEIQNAPEQACLLAKQAFDDAIAELDTLNEDSYKDSTLIMQLLRDNLTLWT		6.16	5.13	5.92
